Laboratory results as given in paper PMC7954794, “Protein context shapes the specificity of SH3 domain-mediated interactions in vivo” (Nature Communications, 2021).

B1: ABP1 T18T (protein, UniProt P15891 2-592, looked up)
Actin-binding protein: ALEPIDYTTHSREIDAEYLKIVRGSDPDTTWLIISPNAKKEYEPESTGSSFHDFLQLFDETKVQYGLARVSPPGSDVEKIIIIGWCPDSAPLKTRASFAANFAAVANNLFKGYHVQVTARDEDDLDENELLMKISNAAGARYSIQTSSKQQGKASTPPVKKSFTPSKSPAPVSKKEPVKTPSPAPAAKISSRVNDNNDDDDWNEPELKERDFDQAPLKPNQSSYKPIGKIDLQKVIAEEKAKEDPRLVQKPTAAGSKIDPSSDIANLKNESKLKRDSEFNSFLGTTKPPSMTESSLKNDDDKVIKGFRNEKSPAQLWAERKAKQNSGNAETKAEAPKPEVPEDEPEGEPDVKDLKSKFEGLAASEKEEEEMENKFAPPPKKSEPTIISPKPFSKPQEPVKAEEAEQPKTDYKKIGNPLPGMHIEADNEEEPEENDDDWDDDEDEAAQPPLPSRNVASGAPVQKEEPEQEEIAPSLPSRNSIPAPKQEEAPEQAPEEEIEEEAEEAAPQLPSRSSAAPPPPPRRATPEKKPKENPWATAEYDYDAAEDNELTFVENDKIINIEFVDDDWWLGELEKDGSKGLFPSNYVSLGN
modifications: synonymous codon change T18T
B2: ABP1 D23D (protein, UniProt P15891 2-592, looked up)
Actin-binding protein: B1 Actin-binding protein
modifications: synonymous codon change D23D
B3: ABP1 N22N (protein, UniProt P15891 2-592, looked up)
Actin-binding protein: B1 Actin-binding protein
modifications: synonymous codon change N22N
B4: ABP1 F19F (protein, UniProt P15891 2-592, looked up)
Actin-binding protein: B1 Actin-binding protein
modifications: synonymous codon change F19F
B5: ABP1 E21E (protein, UniProt P15891 2-592, looked up)
Actin-binding protein: B1 Actin-binding protein
modifications: synonymous codon change E21E in SH3
B6: ABP1 V20V (protein, UniProt P15891 2-592, looked up)
Actin-binding protein: B1 Actin-binding protein
modifications: synonymous V20V codon change in SH3
B7: YDL065C (protein, UniProt Q07418 1-339, looked up)
Peroxisomal membrane protein …: MNENEYDNFDDLDDLLDEDPTKLDEAEPDDVQAKGSVYNDSENKEKNAESKDSDGVQVANESEEDPELKEMMVDLQNEFANLMKNNGNENNVKTEDFNKLISALEEAAKVPHQQMEQGCSSLKSNSTDKGTVNGSNPGFKNIVSNTLDRLKENGNKVDTSLAEETKESQRSGQNNNIDDILSQLLDQMVASGGKESAENQFDLKDGEMDDAITKILDQMTSKEVLYEPMKEMRSEFGVWFQENGENEEHKEKIGTYKRQFNIVDEIVNIYELKDYDELKHKDRVTELLDELEQLGDSPIRSANSPLKHGNEEEELMKMLEIDGNDPNLGNLDKELTDGC
B8: YLR191W (protein)
chain: EFARALYDFVPENPEMEVALKKGDLMAILSKKDPLGRDSDWWKVRTKNGNIGYIPYNYIEIIK
B9: YOL147C (protein, UniProt Q12462 2-236, looked up)
Peroxisomal membrane protein …: VCDTLVYHPSVTRFVKFLDGSAGREKVLRLLQYLARFLAVQNSSLLARQLQAQFTTVRKFLRFLKPLNHLQAAAKFYDNKLASDNVVRVCNVLKNIFFAAYLSLDQVNLLRILKVIPVTVLTGKKIPRWSNWCWLFGLLSGLAMDLRKIQTSHAQIAAFVKAKSQSQGDEHEDHKKVLGKAYQDRYTALRRLFWDAADSFIVLNNLGYLSSNEEYVALSGVVTSILGMQDMWKAT
B10: YDR329C (protein, UniProt P28795 1-441, looked up)
Peroxisomal biogenesis factor …: MAPNQRSRSLLQRHRGKVLISLTGIAALFTTGSVVVFFVKRWLYKQQLRITEQHFIKEQIKRRFEQTQEDSLYTIYELLPVWRMVLNENDLNLDSIVTQLKDQKNQLTRAKSSESRESSPLKSKAELWNELELKSLIKLVTVTYTVSSLILLTRLQLNILTRNEYLDSAIKLTMQQENCNKLQNRFYNWVTSWWSDPEDKADDAMVMAAKKSKKEGQEVYINEQAFLSLSWWILNKGWLSYNEIITNQIEIEFDGIHPRDTLTLEEFSSRLTNIFRNTNSQIFQQNNNNLTSILLPKDSSGQEFLLSQTLDADALTSFHSNTLVFNQLVNELTQCIESTATSIVLESLINESFHFIMNKVGIKTIAKKKPGQEDQQQYQMAVFAMSMKDCCQEMLQTTAGSSHSGSVNEYLATLDSVQPLDDLSASVYSNFGVSSSFSFKP
B11: YGL153W (protein, UniProt P53112 2-341, looked up)
Peroxisomal membrane protein …: SDVVSKDRKALFDSAVSFLKDESIKDAPLLKKIEFLKSKGLTEKEIEIAMKEPKKDGIVGDEVSKKIGSTENRASQDMYLYEAMPPTLPHRDWKDYFVMATATAGLLYGAYEVTRRYVIPNILPEAKSKLEGDKKEIDDQFSKIDTVLNAIEAEQAEFRKKESETLKELSDTIAELKQALVQTTRSREKIEDEFRIVKLEVVNMQNTIDKFVSDNDGMQELNNIQKEMESLKSLMNNRMESGNAQDNRLFSISPNGIPGIDTIPSASEILAKMGMQEESDKEKENGSDANKDDNAVPAWKKAREQTIDSNASIPEWQKNTAANEISVPDWQNGQVEDSIP

Tested on: Lsb3
Test: Deep mutational scanning of Abp1 SH3, Abp1-Lsb3 DHFR-PCA (DMS score)
Type: cell-based, Saccharomyces cerevisiae
Conditions: frequencies normalized to the reference condition; Abp1-Lsb3 DHFR-PCA, MTX2; amino acid level
Procedure: (§1) Single site mutation libraries were generated by a PCR-based saturation mutagenesis method[50] as described below. The mutagenesis was carried out on the pUC19 plasmid containing the SH3 domain sequence of ABP1 flanked by its homology arms subsequently used in the CRISPR mediated genomic re-integration. We used oligos containing degenerate nucleotides (NNN) to carry out the mutagenesis at each codon of the domain sequence. In the first step of the two-step PCR procedure (short PCR step), an amplicon was generated with an oligo containing the degenerate codon which is positioned within the domain sequence, and another oligo lying outside Abp1 sequence in the plasmid. Short PCR step was carried out with the following settings: 5 min at 95 °C, 35 cycles: 20 s at 98 °C, 15 s at 60 °C, 30 s at 72 °C, and a final extension of 1 min at 72 °C. The amplicon generated in this step was used as a mega primer in the second step (long PCR step) to amplify the whole plasmid. Long PCR step was carried out with the following settings: 5 min at 95 °C, 22 cycles: 20 s at 98 °C, 15 s at 68 °C, 3 min 30 s at 72 °C, and a final extension of 5 min at 72 °C. The long PCR product was digested for 2 h at 37 °C with DpnI. The digestion product was then transformed into E. coli MC1061 competent cells. In order to obtain most of the 64 possible codons, we recovered ~1000 colonies from each plate to retrieve the plasmid single mutant libraries. Saturation mutagenesis was carried out in a codon-position-wise manner. Mutants at each position were stored separately. Library quality control was assessed by amplifying the purified plasmid DNA preparations by PCR followed by Illumina sequencing as described below. The genomic insertion of the mutant libraries (one library per amino acid position) was performed by targeting the stuffer sequence in the ABP1 SH3-deleted strain as described in the strain construction section. ABP1 SH3-deleted yeast competent cells were co-transformed with pCAS containing the stuffer-specific gRNA and PCR amplified ABP1 SH3 single position mutated libraries from the pUC19 preparations. As for the library generation, ~1000 colonies from each plate were retrieved. Glycerol stocks of yeast cells were kept for each position (58 different stocks corresponding to the 58 amino acid positions of Abp1 SH3). The stocks were also validated by Illumina sequencing (see below).
(§2) Liquid DHFR-PCA experiments were performed following the generation of the ABP1 SH3 single position mutated yeast strains and were performed in biological independent duplicates. An overnight culture was started in YPD + NAT by adding the same number of cells from each yeast mutant strain (master pool). Then, the master pool and Hua2-DHFR F[3] or Lsb3-DHFR F[3] preys strains were mixed in YPD (2:1) for mating and incubated for 8 h at 30 °C. Diploid cells were selected the first time by transferring the mixture in a YPD + NAT + HPH (OD 0.5) culture for 16 h at 30 °C. The next day, the first diploid selection was transferred in SC complete pH 6.0 + NAT + HPH at 0.5 OD and the culture was grown for 24 h at 30 °C. The validation of the yeast mutant libraries was done the next day with a fraction of the diploid cells (first DHFR-PCA experiment time point without PCA selection, reference condition S2) by amplifying ABP1 SH3 genomic sequence followed by Illumina sequencing as described in the section below. Following the selection, diploid cells OD was read using a TECAN Infinite F200 Pro, and dilutions to 0.1 OD in PCA selection media without agar in a 50 mL tube was done. Tubes were incubated at 30 °C for 72 h (second-time point of the DHFR-PCA experiment, first PCA selection). A fraction of the cells (5U OD) was collected for Illumina sequencing. The cells from the first PCA step were grown for a second PCA selection step using the same procedures. […]

Molecule | LSB3_MTX2
B1 | 1.406
B2 | 1.357
B3 | 0.8355
B4 | 1.966
B5 | 2.169
B6 | 1.496

Same assay, conditions: frequencies scaled to the synonymous mutation distribution; Abp1-Lsb3 DHFR-PCA

Molecule | lsb3sc (DMS score)
B1 | -0.09387
B2 | -0.1431
B3 | -0.6648
B4 | 0.4657
B5 | 0.669
B6 | -0.004531

Tested on: BEM1-1
Test: DHFR-PCA on solid medium, bait BEM1-1 (Fig. 1B)
Type: cell-based, Saccharomyces cerevisiae
Conditions: bait BEM1-1, label = prey; 2-8 replicates
From the text: (§3) Supplement 41467_2021_21873_MOESM8_ESM.xlsx, sheet "Fig1B" | column: medsize; medrep; Ratio; Score

Molecule | medrep (log2 median colony size normalized to plate background, PCA score)
B7 | 3.086
B8 | 3.807
B9 | 4.705
B10 | 2.151
B11 | 2.088

Same assay, conditions: bait BEM1-1, label = prey; only significant differences showed; PPIs completely lost have a ratio of 0.1 and the gained PPIs 2.5

Molecule | Ratio (SH3-deleted/WT medrep)
B7 | 2.5
B8 | 2.5
B9 | 2.5
B10 | 2.5
B11 | 2.5

Tested on: ABP1
Test: DHFR-PCA on solid medium, bait ABP1 (Fig. 1B)
Type: cell-based, Saccharomyces cerevisiae
Conditions: bait ABP1, label = prey; 2-4 replicates
From the text: as §3

Molecule | medrep (log2 median colony size normalized to plate background, PCA score)
B7 | 3.518

Same assay, conditions: bait ABP1, label = prey; only significant differences showed; PPIs completely lost have a ratio of 0.1 and the gained PPIs 2.5

Molecule | Ratio (SH3-deleted/WT medrep)
B7 | 1.321

Tested on: Hua2
Test: Deep mutational scanning of Abp1 SH3, Abp1-Hua2 DHFR-PCA (DMS score)
Type: cell-based, Saccharomyces cerevisiae
Conditions: frequencies normalized to the reference condition; Abp1-Hua2 DHFR-PCA, MTX2; amino acid level
Procedure: as §1, §2

Molecule | HUA2_MTX2
B1 | 1.603
B2 | 1.908
B3 | 0.8417
B4 | 2.091
B5 | 2.3423
B6 | 1.042

Same assay, conditions: frequencies scaled to the synonymous mutation distribution; Abp1-Hua2 DHFR-PCA

Molecule | hua2sc (DMS score)
B1 | -0.009347
B2 | 0.295
B3 | -0.7711
B4 | 0.4783
B5 | 0.7295
B6 | -0.571
